From patent publication US12723246 (UNIVERSITY OF MASSACHUSETTS, dated 2026)

Biological target: the molecule itself
Test: negative-stain EM of the precipitate formed after tag cleavage; self-assembly into capsid-like structures
Source text: Given that dArc Iresembles a Gag protein, and that retroviral Gag proteins have the ability to auto-assemble into capsids, the precipitate was examined at the EM level by negative staining. The presence of round structures of about 39.3±5.2 nm was seen, which resembled HIV capsids. FIGS. 8A and 8B.

B1: purified dArc1 protein, bacterially produced, after cleavage of the HIS-MBP tag (other, Drosophila, UniProt Q7K1U0 1-254, looked up)
chain: MAQLTQMTNEQLRELIEAVRAAAVGAAGSAAAAGGADASRGKGNFSACTHSFGGTRDHDVVEEFIGNIETYKDVEGISDENALKGISLLFYGMASTWWQGVRKEATTWKEAIALIREHFSPTKPAYQIYMEFFQNKQDDHDPIDTFVIQKRALLAQLPSGRHDEETELDLLFGLLNIKYRKHISRHSVHTFKDLLEQGRIIEHNNQEDEEQLATAKNTRGSKRTTRCTYCSFRGHTFDNCRKRQKDRQEEQHEE
notes: Self-assembles into capsid-like structures of about 39.3±5.2 nm; also called His-MBP-dArc1 (before cleavage)
binding result: binds
